This passage reports IC50 results from patent publication US6770444.

This experiment addresses human Ob-Rb (human) (UniProt P48357). Description: SPA displacement of [125I] leptin, Cos-7 cells transfected with human Ob-Rb. For orientation: In a radioligand displacement assay an active substance lowers the binding of a labelled ligand.

As a reminder, the IC50 is the midpoint of a concentration-inhibition curve. High values mean weaker potency in that assay, low ones greater potency in that assay.

Chain of UniProt P48357 (P48357 22-1165): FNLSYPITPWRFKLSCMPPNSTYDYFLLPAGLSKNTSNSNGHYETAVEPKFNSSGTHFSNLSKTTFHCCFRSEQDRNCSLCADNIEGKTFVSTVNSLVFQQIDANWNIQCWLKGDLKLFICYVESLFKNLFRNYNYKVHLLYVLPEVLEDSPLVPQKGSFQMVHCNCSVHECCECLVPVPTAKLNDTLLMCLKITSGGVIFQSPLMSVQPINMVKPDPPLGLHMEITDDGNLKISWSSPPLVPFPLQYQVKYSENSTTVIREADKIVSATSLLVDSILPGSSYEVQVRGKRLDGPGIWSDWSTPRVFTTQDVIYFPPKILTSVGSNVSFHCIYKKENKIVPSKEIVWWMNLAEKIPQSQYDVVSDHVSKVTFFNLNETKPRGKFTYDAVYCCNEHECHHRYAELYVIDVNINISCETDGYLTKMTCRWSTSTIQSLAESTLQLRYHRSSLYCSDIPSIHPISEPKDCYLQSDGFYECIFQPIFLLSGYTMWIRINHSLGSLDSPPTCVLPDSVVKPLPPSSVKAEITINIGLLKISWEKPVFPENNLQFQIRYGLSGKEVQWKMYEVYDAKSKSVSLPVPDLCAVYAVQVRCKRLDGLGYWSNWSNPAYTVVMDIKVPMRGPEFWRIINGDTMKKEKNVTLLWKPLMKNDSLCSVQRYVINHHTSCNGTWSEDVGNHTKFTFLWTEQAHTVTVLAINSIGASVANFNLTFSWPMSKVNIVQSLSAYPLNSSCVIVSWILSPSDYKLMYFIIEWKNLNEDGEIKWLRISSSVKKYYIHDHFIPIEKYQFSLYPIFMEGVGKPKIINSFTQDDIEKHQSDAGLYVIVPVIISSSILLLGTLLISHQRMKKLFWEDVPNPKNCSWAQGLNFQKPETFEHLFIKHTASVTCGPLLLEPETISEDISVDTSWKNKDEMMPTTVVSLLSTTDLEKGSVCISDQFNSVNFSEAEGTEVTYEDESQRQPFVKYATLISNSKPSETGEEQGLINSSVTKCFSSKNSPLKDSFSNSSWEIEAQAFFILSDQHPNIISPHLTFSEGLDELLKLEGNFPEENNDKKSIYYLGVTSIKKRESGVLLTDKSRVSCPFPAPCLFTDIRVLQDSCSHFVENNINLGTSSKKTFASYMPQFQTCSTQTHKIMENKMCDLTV

The substance leptin (unlabeled) (ligand) registered a half-maximal inhibitory concentration (IC50) of 10 to 15 nM.
